The results in this text go back to patent publication US20250320312A1 (OXITOPE PHARMA B V, published 2025).

Common to all, as to assay: scFv ELISA
Assay [1] deals with T1, Peptide 8: Biotin-AEAAAKEAAAKEAAAKEAAAKAAA-Tyr-acid (N-terminal biotin; C-terminal acid).
T1 construct: Control peptide without PC
T1 peptide: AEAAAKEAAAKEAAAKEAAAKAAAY
An outline of the steps: (§1)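 Bound scFv was read as OD450 after HRP–anti-V5 detection, TMB development and HCl stop. PPE with BSA was incubated 1 h at RT on BSA-blocked wells coated overnight at 4° C. with peptide, or on streptavidin wells loaded 1 h with biotinylated PC-peptides at 1 μg/mL.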

Assay [2] concerns the target T2, Peptide 4: Biotin-AGGGGSGGGGSGGGGSAAA-Tyr-acid (N-terminal biotin; C-terminal acid).
T2 construct: Control peptide without PC
T2 peptide: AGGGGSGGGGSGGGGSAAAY
In outline: as §1

In assay [3] the target is Peptide 1: Biotin-…-[Tyr(PC)]-acid.
For assay [4], the target named is Peptide 5: Biotin-…-[Tyr(PC)]-acid.
A further assay addresses BSA (UniProt P02769).

Chain of BSA (P02769 25-607 limits assumed): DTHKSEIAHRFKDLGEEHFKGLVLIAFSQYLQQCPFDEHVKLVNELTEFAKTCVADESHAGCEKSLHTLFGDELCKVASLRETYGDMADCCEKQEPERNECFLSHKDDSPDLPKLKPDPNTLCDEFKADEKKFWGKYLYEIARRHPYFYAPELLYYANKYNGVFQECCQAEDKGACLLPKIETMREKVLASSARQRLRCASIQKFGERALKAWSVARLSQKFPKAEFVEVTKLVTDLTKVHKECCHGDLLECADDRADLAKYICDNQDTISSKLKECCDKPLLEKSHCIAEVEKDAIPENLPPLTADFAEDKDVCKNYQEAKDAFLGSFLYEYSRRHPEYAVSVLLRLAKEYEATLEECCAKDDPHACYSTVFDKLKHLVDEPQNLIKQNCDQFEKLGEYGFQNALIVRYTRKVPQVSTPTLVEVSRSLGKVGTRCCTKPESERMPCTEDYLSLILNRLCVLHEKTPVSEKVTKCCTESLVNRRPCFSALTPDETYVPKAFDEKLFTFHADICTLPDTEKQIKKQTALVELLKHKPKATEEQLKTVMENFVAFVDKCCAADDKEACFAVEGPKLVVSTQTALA

B1: PcOxP_DB02_H09 (scFv, V domains shown)
VH: EVQLLESGGGLVQPGGSLRLSCAASGFTFSSYYMEWVRQAPGKGLEWVAASRNKANDYTYEYADSVKGRFTISRDNSKNTLYLQMNSLRAEDTAVYYCARDYYESSYWYFDVWGQGTLVTVSS
VL: DIVMTQSPDSLAVSLGERATINCTASESLYSSKHKVHYLAWYQQKPGQPPKLLIYGASNRYIGVPDRFSGSGSGTDFTLTISSLQAEDVAVYYCAQFYSYPLTFGGGTKVEIK
notes: scFv in periplasmic extract
Consider B1, for which the OD450 was 0.04 OD450 in assay [1]; 0.04 OD450 in assay [2]; 0.25 OD450 in assay [3]; 0.58 OD450 in assay [4]; 0.07 OD450 in the assay with BSA.

B2: PcOxP_DB03_B03 (scFv, V domains shown)
VH: EVQLLESGGGLVQPGGSLRLSCAASGFTFSDGYMEWVRQAPGKGLEWVAASRNKANDYTTEYADSVKGRFTISRDNSKNTLYLQMNSLRAEDTAVYYCARDYYGSSYWYFDVWGQGTLVTVSS
VL: DIVMTQSPDSLAVSLGERATINCTASESLYSSKHKVHYLAWYQQKPGQPPKLLIYGASNRYIGVPDRFSGSGSGTDFTLTISSLQAEDVAVYYCAQFYVYPLTFGGGTKVEIK
notes: scFv in periplasmic extract
As for B2, the OD450 in assay [1] worked out at 0.04 OD450; in assay [2], 0.04 OD450; in assay [3], 1.12 OD450; in assay [4] it was 1.1 OD450; with BSA, 0.07 OD450.

B3: PcOxP_DB03_A06 (scFv, V domains shown)
VH: EVQLLESGGGLVQPGGSLRLSCAASGFTFSSYYMEWVRQAPGKGLEWVAASRSKANDYTTEYADSVKGRFTISRDNSKNTLYLQMNSLRAEDTAVYYCARDYYGSQYWYFDVWGQGTLVTVSS
VL: DIVMTQSPDSLAVSLGERATINCTASESLYSNKHKVHYLAWYQQKPGQPPKLLIYGASNRYIGVPDRFSGSGSGTDFTLTISSLQAEDVAVYYCAQFYSYPLTFGGGTKVEIK
notes: scFv in periplasmic extract
Consider B3, for which the OD450 in assay [1] was 0.05 OD450; in assay [2], 0.05 OD450; in assay [3], 0.99 OD450; in assay [4], 1.07 OD450; in the assay with BSA, 0.08 OD450.

B4: PcOxP_DB03_B01 (scFv, V domains shown)
VH: EVQLLESGGGLVQPGGSLRLSCAASGFTFSSYYMEWVRQAPGKGLEWVAASRNTANDYTTEYADSVKGRFTISRDNSKNTLYLQMNSLRAEDTAVYYCARDYYGSSYWYFDVWGQGTLVTVSS
VL: DIVMTQSPDSLAVSLGERATINCTASESLYSSKHKVHYLAWYQQKPGQPPKLLIYGASNREIGVPDRFSGSGSGTDFTLTISSLQAEDVAVYYCAQFYSYPLTFGGGTKVEIK
notes: scFv in periplasmic extract
Take B4: the OD450 in assay [1] worked out at 0.04 OD450; in assay [2], 0.04 OD450; in assay [3], 0.21 OD450; in assay [4] it was 0.64 OD450; in the assay with BSA, 0.06 OD450.

B5: PcOxP_DB03_B09 (scFv, V domains shown)
VH: EVQLLESGGGLVQPGGSLRLSCAASGFTFSSYYMEWVRQAPGKGLEWVAASRNKANDYTTEYADSVKGRFTISRDNSKNTLYLQMNSLRAEDTAVYYCARDYYGSSYWYFDVWGQGTLVTVSS
VL: DIVMTQSPDSLAVSLGERATINCTASESLYSSKHKVHYLAWYQQKPGQPPKLLIYGAANRYIGVPDRFSGSGSGTDFTLTISSLQAEDVAVYYCAQFYSYPLTFGGGTKVEIK
notes: scFv in periplasmic extract
In the case of B5, the OD450 is 0.05 OD450 in assay [1]; 0.05 OD450 in assay [2]; 1.09 OD450 in assay [3]; 0.89 OD450 in assay [4]; 0.08 OD450 with BSA.

B6: PcOxP_DB03_A04 (scFv, V domains shown)
VH: EVQLLESGGGLVQPGGSLRLSCAASGDTFSDFYMEWVRQAPGKGLEWVAASRNKANDYSTEYADSVKGRFTISRDNSKNTLYLQMNSLRAEDTAVYYCARDYYGSSYWYFDVWGQGTLVTVSS
VL: DIVMTQSPDSLAVSLGERATINCEASESLYSSKHKVHYLAWYQQKPGQPPKLLIYGASNRYIGVPDRFSGSGSGTDFTLTISSLQAEDVAVYYCAQFYSYPLTFGGGTKVEIK
notes: scFv in periplasmic extract
Consider B6, for which the OD450 in assay [1] is 0.04 OD450; in assay [2], 0.04 OD450; in assay [3], 0.19 OD450; in assay [4], 0.47 OD450; with BSA it was 0.06 OD450.

B7: PcOxP_DB03_B07 (scFv, V domains shown)
VH: EVQLLESGGGLVQPGGSLRLSCAASGFGFSDFYMEWVRQAPGKGLEWVAASRNKANDYTTEYADSVKGRFTISRDNSKNTLYLQMNSLRAEDTAVYYCARDYYSSSYWYFDVWGQGTLVTVSS
VL: DIVMTQSPDSLAVSLGERATINCTASESLYSSKHKVHYLAWYQQKPGQPPKLLIYGASNRYIGVPDRFSGSGSGTDFTLTISSLQAEDVAVYYCAQFYSYPLTFGGGTKVEIK
notes: scFv in periplasmic extract
Regarding B7, the OD450 was determined as 0.05 OD450 in assay [1]; 0.06 OD450 in assay [2]; 0.66 OD450 in assay [3]; 0.81 OD450 in assay [4]; 0.12 OD450 with BSA.

B8: PcOxP_DB03_A05 (scFv, V domains shown)
VH: EVQLLESGGGLVQPGGSLRLSCAASGFTFSEFYMEWVRQAPGKGLEWVAASRNKANDYTTEYADSVKGRFTISRDNSKNTLYLQMNSLRAEDTAVYYCARDYYGSSYWYFDVWGQGTLVTVSS
VL: DIVMTQSPDSLAVSLGERATINCTASESLYSSKHKVHYLAWYQQKPGQPPKLLIYGASNRAIGVPDRFSGSGSGTDFTLTISSLQAEDVAVYYCAQFYFYPLTFGGGTKVEIK
notes: scFv in periplasmic extract
Regarding B8, the OD450 worked out at 0.04 OD450 in assay [1]; 0.04 OD450 in assay [2]; 0.93 OD450 in assay [3]; 0.78 OD450 in assay [4]; 0.06 OD450 in the assay with BSA.

B9: PcOxP_DB03_A07 (scFv, V domains shown)
VH: EVQLLESGGGLVQPGGSLRLSCAASGFHFSDFYMEWVRQAPGKGLEWVAASRNKANDYTTEYADSVKGRFTISRDNSKNTLYLQMNSLRAEDTAVYYCARDYYGSSYWYFDVWGQGTLVTVSS
VL: DIVMTQSPDSLAVSLGERATINCTASENLYSSKHKVHYLAWYQQKPGQPPKLLIYGASNRYSGVPDRFSGSGSGTDFTLTISSLQAEDVAVYYCAQFYSYPLTFGGGTKVEIK
notes: scFv in periplasmic extract
Regarding B9, the OD450 came out at 0.04 OD450 in assay [1]; 0.04 OD450 in assay [2]; 0.94 OD450 in assay [3]; 1.01 OD450 in assay [4]; 0.06 OD450 in the assay with BSA.

B10: PcOxP_DB03_A12 (scFv, V domains shown)
VH: EVQLLESGGGLVQPGGSLRLSCAASGFTFSDGYMEWVRQAPGKGLEWVAASRNKANDYTTAYADSVKGRFTISRDNSKNTLYLQMNSLRAEDTAVYYCARDYYGSSYWYFDVWGQGTLVTVSS
VL: DIVMTQSPDSLAVSLGERATINCTASESLYSSKHKVHYLAWYQQKPGQPPKLLIYGASNRYIGVPDRFSGSGSGTDFTLTISSLQAEDVAVYYCGQFYSYPLTFGGGTKVEIK
notes: scFv in periplasmic extract
With B10, the OD450 in assay [1] came out at 0.05 OD450; in assay [2], 0.06 OD450; in assay [3] it was 2.28 OD450; in assay [4], 1.67 OD450; with BSA, 0.07 OD450.

B11: PcOxP_DB03_B08 (scFv, V domains shown)
VH: EVQLLESGGGLVQPGGSLRLSCAASGFTFSDYYMEWVRQAPGKGLEWVAASRNKANDYTTEYADSVKGRFTISRDNSKNTLYLQMNSLRAEDTAVYYCARDYYGSSYWYFDVWGQGTLVTVSS
VL: DIVMTQSPDSLAVSLGERATINCTASESLYSSKHKVHYLAWYQQKPGQPPKLLIYGASNRYIGVPDRFSGSGSGTDFTLTISSLQAEDVAVYYCANFYSYPLTFGGGTKVEIK
notes: scFv in periplasmic extract
With B11, the OD450 amounted to 0.04 OD450 in assay [1]; 0.05 OD450 in assay [2]; 2.63 OD450 in assay [3]; 1.95 OD450 in assay [4]; 0.07 OD450 in the assay with BSA.

B12: PcOxP_DB03_B11 (scFv, V domains shown)
VH: EVQLLESGGGLVQPGGSLRLSCAASGFTFSDFYVEWVRQAPGKGLEWVAASRNKANTYTTEYADSVKGRFTISRDNSKNTLYLQMNSLRAEDTAVYYCARDYYGSSYWYFDVWGQGTLVTVSS
VL: DIVMTQSPDSLAVSLGERATINCTASESLYSSKHKVHYLAWYQQKPGQPPKLLIYGAQNRYIGVPDRFSGSGSGTDFTLTISSLQAEDVAVYYCGQFYSYPLTFGGGTKVEIK
notes: scFv in periplasmic extract
Turning to B12, the OD450 in assay [1] was 0.05 OD450; in assay [2], 0.05 OD450; in assay [3], 0.5 OD450; in assay [4] it was 0.72 OD450; in the assay with BSA, 0.07 OD450.

B13: PcOxP_DB03_B10 (scFv, V domains shown)
VH: EVQLLESGGGLVQPGGSLRLSCAASGFTFSDYYMEWVRQAPGKGLEWVAASRNKANDYNTEYADSVKGRFTISRDNSKNTLYLQMNSLRAEDTAVYYCARDYYGSSYWYFDVWGQGTLVTVSS
VL: DIVMTQSPDSLAVSLGERATINCTASESLYSSKHKVHYLAWYQQKPGQPPKLLIYGASNRYIGVPDRFSGSGSGTDFTLTISSLQAEDVAVYYCAQFYSYPLTFGGGTKVEIK
notes: scFv in periplasmic extract
Consider B13, for which the OD450 was determined as 0.05 OD450 in assay [1]; 0.05 OD450 in assay [2]; 0.41 OD450 in assay [3]; 0.71 OD450 in assay [4]; 0.08 OD450 with BSA.

B14: PcOxP_DB03_A10 (scFv, V domains shown)
VH: EVQLLESGGGLVQPGGSLRLSCAASGWTFSDFYMEWVRQAPGKGLEWVAASRNKANDYTTEYADSVKGRFTISRDNSKNTLYLQMNSLRAEDTAVYYCARDYYGSSYWYFDVWGQGTLVTVSS
VL: DIVMTQSPDSLAVSLGERATINCTASESLYSSKHKVHYLAWYQQKPGQPPKLLIYGASQRYIGVPDRFSGSGSGTDFTLTISSLQAEDVAVYYCAQFYLYPLTFGGGTKVEIK
notes: scFv in periplasmic extract
Regarding B14, the OD450 in assay [1] was determined as 0.04 OD450; in assay [2] it was 0.04 OD450; in assay [3] it was 0.6 OD450; in assay [4], 0.54 OD450; with BSA, 0.06 OD450.

B15: PcOxP_DB03_B06 (scFv, V domains shown)
VH: EVQLLESGGGLVQPGGSLRLSCAASGITFSDFYMEWVRQAPGKGLEWVAASRNKYNDYTTEYADSVKGRFTISRDNSKNTLYLQMNSLRAEDTAVYYCARDYYGSSYWYFDVWGQGTLVTVSS
VL: DIVMTQSPDSLAVSLGERATINCTASESLYSSKHKVHYLAWYQQKPGQPPKLLIYGASNRYTGVPDRFSGSGSGTDFTLTISSLQAEDVAVYYCAQFYSYPLTFGGGTKVEIK
notes: scFv in periplasmic extract
Take B15: the OD450 was 0.05 OD450 in assay [1]; 0.04 OD450 in assay [2]; 0.68 OD450 in assay [3]; 1.01 OD450 in assay [4]; 0.06 OD450 with BSA.
